In this data set the target is MaPTI6L (Musa acuminata (Cavendish group cv. …, UniProt A0A804I776 1-300)). Put plainly: EMSA; EMSA Kit (Beyotime) protocol; buffer, salt, pH and temperature not stated. The conditions noted are these: protein: recombinant; tags: MBP; label: FAM. On the technique in general: A gel shift assay detects complexes by their altered migration in electrophoresis.
Chain of MaPTI6L (Musa acuminata (A0A804I776 entry or part of it): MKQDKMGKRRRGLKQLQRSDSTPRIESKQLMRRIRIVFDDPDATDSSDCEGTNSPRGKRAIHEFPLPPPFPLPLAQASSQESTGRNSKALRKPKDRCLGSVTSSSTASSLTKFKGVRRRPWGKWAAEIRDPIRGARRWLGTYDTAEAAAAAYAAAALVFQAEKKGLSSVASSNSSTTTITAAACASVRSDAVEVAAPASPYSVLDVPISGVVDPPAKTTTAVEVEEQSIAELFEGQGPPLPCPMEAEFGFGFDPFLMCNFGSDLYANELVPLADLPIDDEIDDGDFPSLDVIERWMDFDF

B1: MaEDS1 promoter GCC-box mutant probe (dsDNA)
DNA 1: CCAACTCCTCCTCTCTCTGGACAAAAAACACAAACTCGTCTTGAAAACTCCGCGACAAA
DNA 2: TTTGTCGCGGAGTTTTCAAGACGAGTTTGTGTTTTTTGTCCAGAGAGAGGAGGAGTTGG
With B1, the binding result is recorded as “no binding”.

Source of the values: paper PMC11894533, “A virulent milRNA of Fusarium oxysporum f. sp. cubense impairs plant resistance by targeting banana AP2 transcription factor coding gene MaPTI6L”.
